The record followed here is patent US20240016931A1 (JIANGSU HENGRUI PHARMACEUTICALS, published 2024).

Test [1] has as its target T1, His-tagged human TSLP antigen (huTSLP-his) (human).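 Further: binding of antibodies to plate-bound TSLP read as absorbance at 450 nm after TMB colour development, EC50 derived from binding curves.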
T1 construct: Secreted from HEK293E and purified on nickel; whole entry named; also called Human TSLP-his
The test can be described thus: ELISA, coated huTSLP-his. (In general: An ELISA detects its analyte on a solid surface through an enzyme-linked reagent.)

In test [2] the target is T2, Fc-tagged human TSLP antigen (huTSLP-Fc) (human, biotin-labeled in the blocking assays).
T2 construct: whole entry named; also called recombinant human TSLP-Fc
The test can be described thus: competition ELISA: blocks TSLP binding to TSLP receptor.

B1: hu179-24 (antibody, human IgG1, kappa, V domains shown)
VH: EVQLVQSGAEVKKPGSSVKVSCKASGGTFSNYLIEWVRQAPGQGLEWMGVIDPGNGDTNYNENFKGRVTITADKSTSTAYMELSSLRSEDTAVYYCAREDNTGTAFDYWGQGTTVTVSS
VL: DIVMTQSPDSLAVSLGERATINCKASQSVSSDVTWYQQKPGQSPKLLIYYVSNYYTGVPDRFSGSGSGTDFTLTISSLQAEDVAVYYCQQHHRFPLTFGQGTKLEIKR
notes: IgG1-YTE, kappa
Usually EC50 stands for the concentration that produces a half-maximal response. Read a low EC50 as an effect from little substance. The molecule B1 returned an EC50 in test [1] of 636 pM.

B2: hu179-28 (antibody, human IgG1, kappa, V domains shown)
VH: EVQLVQSGAEVKKPGSSVKVSCKASGYTFSNYLIEWVRQAPGQGLEWIGVIDPGNGDTNYNENFKGRATLTADKSTSTAYIELSSLRSEDTAVYYCAREDNTGTAFDYWGQGTTVTVSS
VL: DIVMTQSPDSLAVSLGERATINCKASQSVSSDVTWYQQKPGQSPKLLIYYVSQHYTGVPDRFSGSGSGTDFTLTISSLQAEDVAVYYCQQHHRFPLTFGQGTKLEIKR
notes: IgG1-YTE, kappa
In test [1], B2 returned an EC50 of 90.6 pM.

B3: hu179-25 (antibody, human IgG1, kappa, V domains shown)
VH: EVQLVQSGAEVKKPGSSVKVSCKASGYTFSNYLIEWVRQAPGQGLEWIGVIDPGNGDTNYNENFKGRATLTADKSTSTAYIELSSLRSEDTAVYYCAREDNTGTAFDYWGQGTTVTVSS
VL: DIVMTQSPDSLAVSLGERATINCKASQSVSSDVTWYQQKPGQSPKLLIYEVSNHYTGVPDRFSGSGSGTDFTLTISSLQAEDVAVYYCQQHHRFPLTFGQGTKLEIKR
notes: IgG1-YTE, kappa
Consider B3, for which the EC50 in test [1] was found to be 131 pM.

B4: hu179-29 (antibody, human IgG1, kappa, V domains shown)
VH: EVQLVQSGAEVKKPGSSVKVSCKASGYTFSNYLIEWVRQAPGQGLEWIGVIDPGNGDTNYNENFKGRATLTADKSTSTAYIELSSLRSEDTAVYYCAREDNTGTAFDYWGQGTTVTVSS
VL: DIVMTQSPDSLAVSLGERATINCKASQSVSSDVTWYQQKPGQSPKLLIYYVSEHYTGVPDRFSGSGSGTDFTLTISSLQAEDVAVYYCQQHHRFPLTFGQGTKLEIKR
notes: IgG1-YTE, kappa
For the molecule B4, the EC50 in test [1] came to 204 pM.

B5: hu179-32 (antibody, human IgG1, kappa, V domains shown)
VH: EVQLVQSGAEVKKPGSSVKVSCKASGYTFSNYLIEWVRQAPGQGLEWIGVIDPGNGDTNYNENFKGRATLTADKSTSTAYIELSSLRSEDTAVYYCAREDNTGTAFDYWGQGTTVTVSS
VL: DIVMTQSPDSLAVSLGERATINCKASQSVSSDVTWYQQKPGQSPKLLIYYVSNHETGVPDRFSGSGSGTDFTLTISSLQAEDVAVYYCQQHHRFPLTFGQGTKLEIKR
notes: IgG1-YTE, kappa
In test [1], B5 returned an EC50 of 145 pM.

B6: hu179-27 (antibody, human IgG1, kappa, V domains shown)
VH: EVQLVQSGAEVKKPGSSVKVSCKASGYTFSNYLIEWVRQAPGQGLEWIGVIDPGNGDTNYNENFKGRATLTADKSTSTAYIELSSLRSEDTAVYYCAREDNTGTAFDYWGQGTTVTVSS
VL: DIVMTQSPDSLAVSLGERATINCKASQSVSSDVTWYQQKPGQSPKLLIYYVENHYTGVPDRFSGSGSGTDFTLTISSLQAEDVAVYYCQQHHRFPLTFGQGTKLEIKR
notes: IgG1-YTE, kappa
In the case of B6, in test [1], it took 180 pM to reach a half-maximal effect (EC50).

B7: hu179-30 (antibody, human IgG1, kappa, V domains shown)
VH: EVQLVQSGAEVKKPGSSVKVSCKASGYTFSNYLIEWVRQAPGQGLEWIGVIDPGNGDTNYNENFKGRATLTADKSTSTAYIELSSLRSEDTAVYYCAREDNTGTAFDYWGQGTTVTVSS
VL: DIVMTQSPDSLAVSLGERATINCKASQSVSSDVTWYQQKPGQSPKLLIYYVSNDYTGVPDRFSGSGSGTDFTLTISSLQAEDVAVYYCQQHHRFPLTFGQGTKLEIKR
notes: IgG1-YTE, kappa
In turn, B7 gave a concentration for a half-maximal effect (EC50) in test [1] of 246 pM.

B8: hu179-26 (antibody, human IgG1, kappa, V domains shown)
VH: EVQLVQSGAEVKKPGSSVKVSCKASGYTFSNYLIEWVRQAPGQGLEWIGVIDPGNGDTNYNENFKGRATLTADKSTSTAYIELSSLRSEDTAVYYCAREDNTGTAFDYWGQGTTVTVSS
VL: DIVMTQSPDSLAVSLGERATINCKASQSVSSDVTWYQQKPGQSPKLLIYYVDNHYTGVPDRFSGSGSGTDFTLTISSLQAEDVAVYYCQQHHRFPLTFGQGTKLEIKR
notes: IgG1-YTE, kappa
In test [1], B8 yielded an EC50 of 201 pM.

B9: hu179-31 (antibody, human IgG1, kappa, V domains shown)
VH: EVQLVQSGAEVKKPGSSVKVSCKASGYTFSNYLIEWVRQAPGQGLEWIGVIDPGNGDTNYNENFKGRATLTADKSTSTAYIELSSLRSEDTAVYYCAREDNTGTAFDYWGQGTTVTVSS
VL: DIVMTQSPDSLAVSLGERATINCKASQSVSSDVTWYQQKPGQSPKLLIYYVSNEYTGVPDRFSGSGSGTDFTLTISSLQAEDVAVYYCQQHHRFPLTFGQGTKLEIKR
notes: IgG1-YTE, kappa
In turn, B9 showed an EC50 in test [1] of 201 pM.

B10: hu199-08 (antibody, human IgG1, kappa, V domains shown)
VH: EVQLVQSGAEVKKPGASVKVSCKASGYTFTTYWMHWVRQAPGQGLEWMGMIDPSDSETTLIQKFKDRVTLTVDKSTSTAYMELSSLRSEDTAVYYCARTLDGYYDYWGQGTTVTVSS
VL: DIQMTQSPSSLSASVGDRVTITCRASENIYSYLAWYQQKPGKAPKLLVYFAKTLAEGVPSRFSGSGSGTDFTLTISSLQPEDFATYYCQHHYGTPWTFGGGTKVEIKR
notes: IgG1-YTE, kappa
Broadly, the IC50 is the concentration that gives 50% inhibition. Low readings indicate higher potency, high ones lower potency. The molecule B10 yielded an IC50 in test [2] of 283 pM.

B11: hu199-12 (antibody, human IgG1, kappa, V domains shown)
VH: EVQLVQSGAEVKKPGASVKVSCKASGYTFTTYWMHWVRQAPGQGLEWMGMIDPSDSETTLIQKFKDRVTLTVDKSTSTAYMELSSLRSEDTAVYYCARTLDGYYDYWGQGTTVTVSS
VL: DIQMTQSPSSLSASVGDRVTITCRASENIYSYLAWYQQKPGKSPQLLVYFAKTLAEGVPSRFSGSVSGTQFTLTISSLQPEDFATYYCQHHYGTPWTFGGGTKVEIKR
notes: IgG1-YTE, kappa
On to B11, for which the IC50 in test [2] amounted to 370 pM.

B12: hu199-03 (antibody, human IgG1, kappa, V domains shown)
VH: EVQLVQSGAEVKKPGASVKVSCKASGYTFTTYWMHWVRQAPGQGLEWMGMIDPSDSETTLIQKFKDRVTMTVDKSTSTAYMELSSLRSEDTAVYYCARTLDGYYDYWGQGTTVTVSS
VL: DIQMTQSPSSLSASVGDRVTITCRASENIYSYLAWYQQKPGKSPQLLVYFAKTLAEGVPSRFSGSGSGTQFTLTISSLQPEDFATYYCQHHYGTPWTFGGGTKVEIKR
notes: IgG1-YTE, kappa
As for B12, in test [2], the concentration for half-maximal inhibition (IC50) came out at 208 pM.

B13: hu199-05 (antibody, human IgG1, kappa, V domains shown)
VH: EVQLVQSGAEVKKPGASVKVSCKASGYTFTTYWMHWVRQAPGQGLEWMGMIDPSDSETTLIQKFKDRVTMTVDKSTSTAYMELSSLRSEDTAVYYCARTLDGYYDYWGQGTTVTVSS
VL: DIQMTQSPSSLSASVGDRVTITCRASENIYSYLAWYQQKPGKAPKLLVYFAKTLAEGVPSRFSGSVSGTDFTLTISSLQPEDFATYYCQHHYGTPWTFGGGTKVEIKR
notes: IgG1-YTE, kappa
As for B13, the IC50 in test [2] came to 473 pM.

B14: hu199-07 (antibody, human IgG1, kappa, V domains shown)
VH: EVQLVQSGAEVKKPGASVKVSCKASGYTFTTYWMHWVRQAPGQGLEWMGMIDPSDSETTLIQKFKDRVTLTVDKSTSTAYMELSSLRSEDTAVYYCARTLDGYYDYWGQGTTVTVSS
VL: DIQMTQSPSSLSASVGDRVTITCRASENIYSYLAWYQQKPGKAPKLLIYFAKTLAEGVPSRFSGSGSGTDFTLTISSLQPEDFATYYCQHHYGTPWTFGGGTKVEIKR
notes: IgG1-YTE, kappa
For B14, in test [2], the IC50 was 283 pM.

B15: hu199-10 (antibody, human IgG1, kappa, V domains shown)
VH: EVQLVQSGAEVKKPGASVKVSCKASGYTFTTYWMHWVRQAPGQGLEWMGMIDPSDSETTLIQKFKDRVTLTVDKSTSTAYMELSSLRSEDTAVYYCARTLDGYYDYWGQGTTVTVSS
VL: DIQMTQSPSSLSASVGDRVTITCRASENIYSYLAWYQQKPGKAPKLLIYFAKTLAEGVPSRFSGSVSGTDFTLTISSLQPEDFATYYCQHHYGTPWTFGGGTKVEIKR
notes: IgG1-YTE, kappa
Turning to B15, in test [2], the IC50 turned out to be 391 pM.

B16: hu199-02 (antibody, human IgG1, kappa, V domains shown)
VH: EVQLVQSGAEVKKPGASVKVSCKASGYTFTTYWMHWVRQAPGQGLEWMGMIDPSDSETTLIQKFKDRVTMTVDKSTSTAYMELSSLRSEDTAVYYCARTLDGYYDYWGQGTTVTVSS
VL: DIQMTQSPSSLSASVGDRVTITCRASENIYSYLAWYQQKPGKAPKLLVYFAKTLAEGVPSRFSGSGSGTDFTLTISSLQPEDFATYYCQHHYGTPWTFGGGTKVEIKR
notes: IgG1-YTE, kappa
On to B16, for which, in test [2], the IC50 was 219 pM.

B17: hu199-09 (antibody, human IgG1, kappa, V domains shown)
VH: EVQLVQSGAEVKKPGASVKVSCKASGYTFTTYWMHWVRQAPGQGLEWMGMIDPSDSETTLIQKFKDRVTLTVDKSTSTAYMELSSLRSEDTAVYYCARTLDGYYDYWGQGTTVTVSS
VL: DIQMTQSPSSLSASVGDRVTITCRASENIYSYLAWYQQKPGKSPQLLVYFAKTLAEGVPSRFSGSGSGTQFTLTISSLQPEDFATYYCQHHYGTPWTFGGGTKVEIKR
notes: IgG1-YTE, kappa
Consider B17, for which, in test [2], the IC50 came out at 273 pM.

B18: hu199-04 (antibody, human IgG1, kappa, V domains shown)
VH: EVQLVQSGAEVKKPGASVKVSCKASGYTFTTYWMHWVRQAPGQGLEWMGMIDPSDSETTLIQKFKDRVTMTVDKSTSTAYMELSSLRSEDTAVYYCARTLDGYYDYWGQGTTVTVSS
VL: DIQMTQSPSSLSASVGDRVTITCRASENIYSYLAWYQQKPGKAPKLLIYFAKTLAEGVPSRFSGSVSGTDFTLTISSLQPEDFATYYCQHHYGTPWTFGGGTKVEIKR
notes: IgG1-YTE, kappa
For B18, the IC50 in test [2] was determined as 424 pM.

B19: hu199-06 (antibody, human IgG1, kappa, V domains shown)
VH: EVQLVQSGAEVKKPGASVKVSCKASGYTFTTYWMHWVRQAPGQGLEWMGMIDPSDSETTLIQKFKDRVTMTVDKSTSTAYMELSSLRSEDTAVYYCARTLDGYYDYWGQGTTVTVSS
VL: DIQMTQSPSSLSASVGDRVTITCRASENIYSYLAWYQQKPGKSPQLLVYFAKTLAEGVPSRFSGSVSGTQFTLTISSLQPEDFATYYCQHHYGTPWTFGGGTKVEIKR
notes: IgG1-YTE, kappa
On to B19, for which, in test [2], the 50% inhibitory concentration (IC50) amounted to 381 pM.

B20: hu199-01 (antibody, human IgG1, kappa, V domains shown)
VH: EVQLVQSGAEVKKPGASVKVSCKASGYTFTTYWMHWVRQAPGQGLEWMGMIDPSDSETTLIQKFKDRVTMTVDKSTSTAYMELSSLRSEDTAVYYCARTLDGYYDYWGQGTTVTVSS
VL: DIQMTQSPSSLSASVGDRVTITCRASENIYSYLAWYQQKPGKAPKLLIYFAKTLAEGVPSRFSGSGSGTDFTLTISSLQPEDFATYYCQHHYGTPWTFGGGTKVEIKR
notes: IgG1-YTE, kappa
As for B20, in test [2], the IC50 came to 191 pM.

B21: hu199-11 (antibody, human IgG1, kappa, V domains shown)
VH: EVQLVQSGAEVKKPGASVKVSCKASGYTFTTYWMHWVRQAPGQGLEWMGMIDPSDSETTLIQKFKDRVTLTVDKSTSTAYMELSSLRSEDTAVYYCARTLDGYYDYWGQGTTVTVSS
VL: DIQMTQSPSSLSASVGDRVTITCRASENIYSYLAWYQQKPGKAPKLLVYFAKTLAEGVPSRFSGSVSGTDFTLTISSLQPEDFATYYCQHHYGTPWTFGGGTKVEIKR
notes: IgG1-YTE, kappa
Turning to B21, the IC50 in test [2] came out at 365 pM.
